Assays:
CD45RA (human) [1] = molecular target: CD45RA (human) (UniProt P08575); test: FACS on Jurkat B2.7 cells; background subtracted, rounded to nearest ten
CD45RA (human) [2] = molecular target: CD45RA (human) (UniProt P08575); test: FACS on Jurkat D1.1 cells; background subtracted, rounded to nearest ten
CD7 (human) [3] = molecular target: CD7 (human) (UniProt P09564); test: FACS on Jurkat B2.7 cells; background subtracted, rounded to nearest ten
CD7 (human) [4] = molecular target: CD7 (human) (UniProt P09564); test: FACS on Jurkat D1.1 cells; background subtracted, rounded to nearest ten
CD16 (human) [5] = test: FACS on Jurkat B2.7 cells; background subtracted, rounded to nearest ten
Chain of CD16 (human) (P06734 whole entry): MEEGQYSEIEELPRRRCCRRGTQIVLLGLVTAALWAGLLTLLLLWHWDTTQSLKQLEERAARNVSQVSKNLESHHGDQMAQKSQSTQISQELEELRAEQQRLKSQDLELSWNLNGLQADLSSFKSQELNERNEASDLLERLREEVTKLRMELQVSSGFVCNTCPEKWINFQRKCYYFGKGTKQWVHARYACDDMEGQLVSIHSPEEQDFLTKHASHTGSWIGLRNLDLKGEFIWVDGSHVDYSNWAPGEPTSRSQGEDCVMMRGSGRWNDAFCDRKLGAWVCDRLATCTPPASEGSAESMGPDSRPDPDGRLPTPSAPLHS

CD16 (human) [6] = test: FACS on Jurkat D1.1 cells; background subtracted, rounded to nearest ten
CD29 (human) [7] = molecular target: CD29 (human) (UniProt P05556); test: FACS on Jurkat B2.7 cells; background subtracted, rounded to nearest ten
Chain of CD29 (human) (P05556 21-798): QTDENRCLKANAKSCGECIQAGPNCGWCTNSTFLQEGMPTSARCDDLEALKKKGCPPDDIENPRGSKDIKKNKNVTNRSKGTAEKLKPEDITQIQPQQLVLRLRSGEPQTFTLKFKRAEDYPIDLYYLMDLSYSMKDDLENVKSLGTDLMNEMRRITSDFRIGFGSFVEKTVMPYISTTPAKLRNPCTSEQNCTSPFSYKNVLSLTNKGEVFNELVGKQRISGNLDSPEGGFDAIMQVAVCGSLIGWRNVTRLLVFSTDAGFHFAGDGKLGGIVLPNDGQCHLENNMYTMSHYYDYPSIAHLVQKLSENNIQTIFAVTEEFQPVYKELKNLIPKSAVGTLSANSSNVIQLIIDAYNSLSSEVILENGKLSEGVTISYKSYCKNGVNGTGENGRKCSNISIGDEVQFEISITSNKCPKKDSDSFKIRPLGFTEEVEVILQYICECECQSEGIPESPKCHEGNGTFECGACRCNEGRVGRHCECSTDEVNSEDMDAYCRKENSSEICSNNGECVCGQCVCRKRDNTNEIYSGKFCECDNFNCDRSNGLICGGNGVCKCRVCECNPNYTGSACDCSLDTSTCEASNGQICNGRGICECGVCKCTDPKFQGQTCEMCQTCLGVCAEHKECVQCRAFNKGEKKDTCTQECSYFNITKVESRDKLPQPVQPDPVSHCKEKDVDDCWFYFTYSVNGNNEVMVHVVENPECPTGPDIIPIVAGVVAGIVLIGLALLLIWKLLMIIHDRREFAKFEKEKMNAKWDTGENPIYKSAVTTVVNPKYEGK

CD29 (human) [8] = molecular target: CD29 (human) (UniProt P05556); test: FACS on Jurkat D1.1 cells; background subtracted, rounded to nearest ten
TCRα/β (human) [9] = test: FACS on Jurkat B2.7 cells; background subtracted, rounded to nearest ten
TCRα/β (human) [10] = test: FACS on Jurkat D1.1 cells; background subtracted, rounded to nearest ten
CD5 (human) [11] = molecular target: CD5 (human) (UniProt P06127); test: FACS on Jurkat B2.7 cells; background subtracted, rounded to nearest ten
Chain of CD5 (human) (P06127 25-495): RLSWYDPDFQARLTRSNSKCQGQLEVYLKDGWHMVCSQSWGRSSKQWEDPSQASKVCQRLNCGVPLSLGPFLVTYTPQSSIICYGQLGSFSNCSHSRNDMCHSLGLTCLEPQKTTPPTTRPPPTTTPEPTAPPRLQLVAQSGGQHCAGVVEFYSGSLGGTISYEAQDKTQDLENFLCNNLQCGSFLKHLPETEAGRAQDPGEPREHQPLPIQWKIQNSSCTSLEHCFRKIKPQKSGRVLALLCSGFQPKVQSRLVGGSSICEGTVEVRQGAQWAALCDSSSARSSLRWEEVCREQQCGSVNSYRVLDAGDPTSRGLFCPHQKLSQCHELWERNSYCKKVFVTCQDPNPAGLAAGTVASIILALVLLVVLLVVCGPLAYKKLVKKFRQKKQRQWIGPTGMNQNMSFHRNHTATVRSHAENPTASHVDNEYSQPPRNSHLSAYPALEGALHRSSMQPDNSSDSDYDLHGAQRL

CD5 (human) [12] = molecular target: CD5 (human) (UniProt P06127); test: FACS on Jurkat D1.1 cells; background subtracted, rounded to nearest ten
CD3 (human) [13] = molecular target: CD3 (human) (UniProt P07766); test: FACS on Jurkat B2.7 cells; background subtracted, rounded to nearest ten
Chain of CD3 (human) (P07766 23-207): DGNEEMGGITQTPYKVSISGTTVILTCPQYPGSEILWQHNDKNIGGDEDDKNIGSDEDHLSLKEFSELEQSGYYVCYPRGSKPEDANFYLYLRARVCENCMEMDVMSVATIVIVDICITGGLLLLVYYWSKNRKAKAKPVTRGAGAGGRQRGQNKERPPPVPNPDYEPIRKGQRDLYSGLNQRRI

CD3 (human) [14] = molecular target: CD3 (human) (UniProt P07766); test: FACS on Jurkat D1.1 cells; background subtracted, rounded to nearest ten
CD4 (human) = CD4 (human) (UniProt P01730); test: FACS on Jurkat B2.7 cells; background subtracted, rounded to nearest ten
CD1a (human) [15] = molecular target: CD1a (human) (UniProt P06126); test: as above
Chain of CD1a (human) (P06126 17-327): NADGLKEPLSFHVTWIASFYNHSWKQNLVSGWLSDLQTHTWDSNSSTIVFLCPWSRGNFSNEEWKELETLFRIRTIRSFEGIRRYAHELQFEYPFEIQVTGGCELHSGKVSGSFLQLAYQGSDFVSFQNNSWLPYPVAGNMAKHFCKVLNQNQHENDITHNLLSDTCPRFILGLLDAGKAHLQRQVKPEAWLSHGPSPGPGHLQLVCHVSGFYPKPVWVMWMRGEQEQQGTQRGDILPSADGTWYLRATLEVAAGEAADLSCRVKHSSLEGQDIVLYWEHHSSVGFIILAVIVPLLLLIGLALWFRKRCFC

CD1a (human) [16] = molecular target: CD1a (human) (UniProt P06126); test: FACS on Jurkat D1.1 cells; background subtracted, rounded to nearest ten
CD18 (human) [17] = molecular target: CD18 (human) (UniProt P05107); test: FACS on Jurkat B2.7 cells; background subtracted, rounded to nearest ten
Chain of CD18 (human) (P05107 23-769): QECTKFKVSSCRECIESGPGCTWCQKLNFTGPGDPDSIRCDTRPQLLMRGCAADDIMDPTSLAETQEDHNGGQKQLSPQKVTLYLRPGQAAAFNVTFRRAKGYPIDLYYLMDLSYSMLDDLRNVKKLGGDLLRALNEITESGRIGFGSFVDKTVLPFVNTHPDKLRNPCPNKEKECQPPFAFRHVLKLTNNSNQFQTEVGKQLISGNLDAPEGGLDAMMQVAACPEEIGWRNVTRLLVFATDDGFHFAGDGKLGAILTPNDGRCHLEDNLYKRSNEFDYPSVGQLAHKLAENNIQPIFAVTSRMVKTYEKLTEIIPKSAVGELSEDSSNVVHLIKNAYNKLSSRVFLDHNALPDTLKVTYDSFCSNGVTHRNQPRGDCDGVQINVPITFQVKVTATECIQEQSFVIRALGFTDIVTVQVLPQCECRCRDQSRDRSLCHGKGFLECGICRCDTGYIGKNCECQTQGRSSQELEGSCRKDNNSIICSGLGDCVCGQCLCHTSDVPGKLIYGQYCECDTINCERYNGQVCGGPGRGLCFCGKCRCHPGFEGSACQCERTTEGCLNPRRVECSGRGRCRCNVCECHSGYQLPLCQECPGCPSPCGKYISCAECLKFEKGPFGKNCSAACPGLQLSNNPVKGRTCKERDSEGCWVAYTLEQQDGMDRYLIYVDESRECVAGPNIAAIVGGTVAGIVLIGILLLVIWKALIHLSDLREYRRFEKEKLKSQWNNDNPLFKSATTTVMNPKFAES

CD18 (human) [18] = molecular target: CD18 (human) (UniProt P05107); test: FACS on Jurkat D1.1 cells; background subtracted, rounded to nearest ten
CD11a (human) [19] = molecular target: CD11a (human) (UniProt P20701); test: FACS on Jurkat B2.7 cells; background subtracted, rounded to nearest ten
CD11a (human) [20] = molecular target: CD11a (human) (UniProt P20701); test: FACS on Jurkat D1.1 cells; background subtracted, rounded to nearest ten
CD58 (human) [21] = molecular target: CD58 (human) (UniProt P19256); test: FACS on Jurkat B2.7 cells; background subtracted, rounded to nearest ten
Chain of CD58 (human) (P19256 29-250): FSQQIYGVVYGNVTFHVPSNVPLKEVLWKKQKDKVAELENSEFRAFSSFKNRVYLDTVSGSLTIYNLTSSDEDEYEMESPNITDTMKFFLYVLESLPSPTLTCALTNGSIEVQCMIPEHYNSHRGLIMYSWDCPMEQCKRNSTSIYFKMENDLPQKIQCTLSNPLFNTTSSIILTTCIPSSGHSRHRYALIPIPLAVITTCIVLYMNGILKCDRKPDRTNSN

CD58 (human) [22] = molecular target: CD58 (human) (UniProt P19256); test: FACS on Jurkat D1.1 cells; background subtracted, rounded to nearest ten
[23] = molecular target: CD43RO (so in the source); T200. LCA) (human) (UniProt P08575); test: FACS on Jurkat B2.7 cells; background subtracted, rounded to nearest ten
Chain of CD43RO (so in the source); T200. LCA) (human) (P08575 26-1306): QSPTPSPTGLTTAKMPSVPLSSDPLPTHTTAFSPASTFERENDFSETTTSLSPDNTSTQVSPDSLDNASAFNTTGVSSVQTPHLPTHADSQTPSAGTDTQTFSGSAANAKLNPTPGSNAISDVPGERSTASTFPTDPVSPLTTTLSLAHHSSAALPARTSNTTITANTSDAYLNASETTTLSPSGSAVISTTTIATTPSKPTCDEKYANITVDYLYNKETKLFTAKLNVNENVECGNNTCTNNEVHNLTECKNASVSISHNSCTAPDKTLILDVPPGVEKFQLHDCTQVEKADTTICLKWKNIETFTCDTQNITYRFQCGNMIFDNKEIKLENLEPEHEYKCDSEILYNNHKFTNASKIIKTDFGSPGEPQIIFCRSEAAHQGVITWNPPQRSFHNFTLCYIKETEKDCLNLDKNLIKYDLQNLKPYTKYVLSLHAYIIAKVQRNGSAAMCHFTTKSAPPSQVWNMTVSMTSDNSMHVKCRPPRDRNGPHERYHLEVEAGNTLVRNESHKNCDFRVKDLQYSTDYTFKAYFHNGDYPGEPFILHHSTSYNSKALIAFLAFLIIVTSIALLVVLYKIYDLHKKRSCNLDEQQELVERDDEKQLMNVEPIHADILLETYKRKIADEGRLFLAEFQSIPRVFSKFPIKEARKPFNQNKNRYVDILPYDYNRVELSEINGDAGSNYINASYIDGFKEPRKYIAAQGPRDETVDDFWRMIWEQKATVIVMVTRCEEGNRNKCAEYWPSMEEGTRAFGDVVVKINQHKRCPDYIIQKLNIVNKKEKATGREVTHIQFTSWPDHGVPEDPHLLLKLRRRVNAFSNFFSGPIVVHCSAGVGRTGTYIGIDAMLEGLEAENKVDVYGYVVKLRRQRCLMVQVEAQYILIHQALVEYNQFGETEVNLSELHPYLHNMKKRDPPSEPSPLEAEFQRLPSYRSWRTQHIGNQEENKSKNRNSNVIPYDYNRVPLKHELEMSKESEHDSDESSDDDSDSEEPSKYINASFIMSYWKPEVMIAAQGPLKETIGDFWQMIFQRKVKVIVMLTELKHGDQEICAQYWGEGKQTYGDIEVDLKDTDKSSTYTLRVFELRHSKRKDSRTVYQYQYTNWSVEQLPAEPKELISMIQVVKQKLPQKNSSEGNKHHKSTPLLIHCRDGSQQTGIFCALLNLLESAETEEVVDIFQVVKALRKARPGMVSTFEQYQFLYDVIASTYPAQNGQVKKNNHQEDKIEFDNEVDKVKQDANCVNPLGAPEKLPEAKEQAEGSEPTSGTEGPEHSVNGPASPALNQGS

[24] = molecular target: CD43RO (so in the source); T200. LCA) (human) (UniProt P08575); test: FACS on Jurkat D1.1 cells; background subtracted, rounded to nearest ten
MHC-classI (human) [25] = test: FACS on Jurkat B2.7 cells; background subtracted, rounded to nearest ten
MHC-classI (human) [26] = test: FACS on Jurkat D1.1 cells; background subtracted, rounded to nearest ten

Chain of CD7 (human) (P09564 26-240): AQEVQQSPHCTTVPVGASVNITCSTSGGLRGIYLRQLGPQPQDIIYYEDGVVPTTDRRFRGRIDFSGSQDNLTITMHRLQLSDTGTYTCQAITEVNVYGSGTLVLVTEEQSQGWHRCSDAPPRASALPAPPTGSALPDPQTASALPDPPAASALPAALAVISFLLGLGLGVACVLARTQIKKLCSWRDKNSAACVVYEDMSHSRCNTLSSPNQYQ
Chain of CD45RA (human) (P08575 26-1306): as the sequence (P08575 26-1306) above

2H4 (antibody)
Mean Fluorescence Intensity (arbitrary units) (CD45RA (human) [1]): 40 | Mean Fluorescence Intensity (arbitrary units) (CD45RA (human) [2]): 30

3A1 (anti-CD7) (antibody)
Mean Fluorescence Intensity (arbitrary units) (CD7 (human) [3]): 190 | Mean Fluorescence Intensity (arbitrary units) (CD7 (human) [4]): 200

3G8 (antibody)
Mean Fluorescence Intensity (arbitrary units) (CD16 (human) [5]): 20 | Mean Fluorescence Intensity (arbitrary units) (CD16 (human) [6]): 20

4B4 (antibody)
Mean Fluorescence Intensity (arbitrary units) (CD29 (human) [7]): 110 | Mean Fluorescence Intensity (arbitrary units) (CD29 (human) [8]): 140

BMA-031 (antibody)
Mean Fluorescence Intensity (arbitrary units) (TCRα/β (human) [9]): 40 | Mean Fluorescence Intensity (arbitrary units) (TCRα/β (human) [10]): 10

OKT1 (anti-CD5) (antibody)
Mean Fluorescence Intensity (arbitrary units) (CD5 (human) [11]): 90 | Mean Fluorescence Intensity (arbitrary units) (CD5 (human) [12]): 20

OKT3 (anti-CD3) (antibody)
Mean Fluorescence Intensity (arbitrary units) (CD3 (human) [13]): 80 | Mean Fluorescence Intensity (arbitrary units) (CD3 (human) [14]): 30

OKT4 (anti-CD4) (antibody)
Mean Fluorescence Intensity (arbitrary units) (CD4 (human)): 130

OKT6 (anti-CD1a) (antibody)
Mean Fluorescence Intensity (arbitrary units) (CD1a (human) [15]): 10 | Mean Fluorescence Intensity (arbitrary units) (CD1a (human) [16]): 10

TS1/18.1.2.11.4 (anti-LFA-1β) (antibody)
Mean Fluorescence Intensity (arbitrary units) (CD18 (human) [17]): 80 | Mean Fluorescence Intensity (arbitrary units) (CD18 (human) [18]): 30

TS1/22.1.13 (anti-LFA-1a) (antibody)
Mean Fluorescence Intensity (arbitrary units) (CD11a (human) [19]): 100 | Mean Fluorescence Intensity (arbitrary units) (CD11a (human) [20]): 40

TS2/9.1.4.3 (anti-LFA-3) (antibody)
Mean Fluorescence Intensity (arbitrary units) (CD58 (human) [21]): 60 | Mean Fluorescence Intensity (arbitrary units) (CD58 (human) [22]): 40

UCHL1 (antibody)
Mean Fluorescence Intensity (arbitrary units) [23]: 20 | Mean Fluorescence Intensity (arbitrary units) [24]: 10

W6/32 (anti-MHC class I) (antibody)
Mean Fluorescence Intensity (arbitrary units) (MHC-classI (human) [25]): 70 | Mean Fluorescence Intensity (arbitrary units) (MHC-classI (human) [26]): 190
